This is an account of results in patent US20230295310A1 (ABCELLERA BIOLOGICS, published 2023).

Residue numbers refer to the chain shown, from its start.

This assay deals with EGFR on HeLa cells (UniProt P00533 25-1210, limits assumed). The assay is described as follows: cell-based or functional assay.

B1: GOMP001_bsAb_014 (bispecific antibody, human IgG1, kappa, L234A L235A)
heavy 1: QVQLVQSGAEVKKPGASVKVSCKASGYTFTSYDINWVRKATGQGLEWMGWMNPKSGKTGYAQEFQGRITMTRNTPISTVYMDLSSLRSEDTAVYYCAREGHYDFWTGYYSFDYWGQGTLVTVSSASTKGPSVFPLAPSSKSTSGGTAALGCLVADYFPEPVTVSWNSGALTSGVHTFPAVLQSSGLYSLSSVVTVPSSSLGTQTYICNVNHKPSNTKVDEKVEPKSCDKTHTCPPCPAPEAAGGPSVFLFPPKPKDTLMISRTPEVTCVVVDVSHEDPEVKFNWYVDGVEVHNAKTKPREEQYNSTYRVVSVLTVLHQDWLNGKEYKCKVSNKALPAPIEKTISKAKGQPREPQVYTLPPSREEMTDNQVSLTCLVKGFYPSDIAVEWESNGQPENNYKTTPPVLMSDGSFFLASKLTVDKSRWQQGNVFSCSVMHEALHNHYTQKSLSLSPG
light 1: RIQMTQSPSSLSASVGDRVTITCRASQGIRNDLGWYQDTPGKAPKRLIYAASSLQSGVPSRFSGSGSGTEFTLTISSLQPEDFATYYCLQHYSYPYTFGQGTKLEIKRTVAAPSVFIFPPSDKQLKSGTARVVCLLNNFYPREAKVQWKVDNALQSGNSQESVTEQDSKDSTYSLSSTLTLSKADYEKHKVYACEVTHQGLSSPVTKSFNRGEC
heavy 2: QVQLVQSGAEVKKPGASVKVSCKASGYTFTSHWMHWVRYAPGQGLEWIGEFNPSNGRTNYNEKFKSKATMTVDTSTNTAYMELSSLRSEDTAVYYCASRDYDYDGRYFDYWGRGTLVTVSSASTKGPSVFPLAPSSKSTSGGTAALGCLVKDYFPEPVTVSWNSGALTSGVHTFPAVLQSSGLYSLSSVVTVPSSSLGTQTYICNVNHKPSNTKVDKKVEPKSCDKTHTCPPCPAPEAAGGPSVFLFPPKPKDTLMISRTPEVTCVVVDVSHEDPEVKFNWYVDGVEVHNAKTKPREEQYNSTYRVVSVLTVLHQDWLNGKEYKCKVSNKALPAPIEKTISKAKGQPRRPRVYTLPPSREEMTKNQVSLVCLVKGFYPSDIAVEWESNGQPENNYKTTPPVLDSDGSFFLYSVLTVDKSRWQQGNVFSCSVMHEALHNHYTQKSLSLSPG
light 2: DIQMTQSPSSLSASVGDRVTITCSASSSVTYMYWYQRKPGDAPKLLIYDTSNLASGVPSRFSGSGSGTDYTFTISSLQPEDIATYYCQQWSSHIFTFGQGTKVEIKRTVAAPSVFIFPPSDEQLKSGTASVVCLLNNFYPREAKVQWKVDNALQSGNSQESVTEQDSKDSTYSLSSTLTLSKADYEKHKVYACEVTHQGLSSPVTKSFNRGEC
Consider B1, for which the Max killing % came to 95% and the “X… HeLa EC50” value is 0.131 nM.

B2: GOMP001_bsAb_018 (bispecific antibody, human IgG1, kappa, L234A L235A)
heavy 1: EVQLVESGGDLVQPGRSLRLSCAASGFTFDDCVIHWVRKAPGKGLEWVSGITWNSGRIGYADEVKGRFTISRDNAKNSLYLQMNSLRVEDTALYYCAKEGNYDFWSTYYRGYFDLWGRGTLVTVSSASTKGPSVFPLAPSSKSTSGGTAALGCLVADYFPEPVTVSWNSGALTSGVHTFPAVLQSSGLYSLSSVVTVPSSSLGTQTYICNVNHKPSNTKVDEKVEPKSCDKTHTCPPCPAPEAAGGPSVFLFPPKPKDTLMISRTPEVTCVVVDVSHEDPEVKFNWYVDGVEVHNAKTKPREEQYNSTYRVVSVLTVLHQDWLNGKEYKCKVSNKALPAPIEKTISKAKGQPREPQVYTLPPSREEMTDNQVSLTCLVKGFYPSDIAVEWESNGQPENNYKTTPPVLMSDGSFFLASKLTVDKSRWQQGNVFSCSVMHEALHNHYTQKSLSLSPG
light 1: B1 light 1 with T39K, K42I, S56G, S60L, Y92N
heavy 2: B1 heavy 2
light 2: B1 light 2
Regarding B2, the Max killing % was 97.3% and the “X… HeLa EC50” value was 0.111 nM.

B3: GOMP001_bsAb_015 (bispecific antibody, human IgG1, kappa, L234A L235A)
heavy 1: QVQLVQSGAEVKKPGASVKVSCKASGYTFTSHWMHWVRKAPGQGLEWIGEFNPSNGRTNYNEEFKSKATMTVDTSTNTAYMELSSLRSEDTAVYYCASRDYDYDGRYFDYWGQGTLVTVSSASTKGPSVFPLAPSSKSTSGGTAALGCLVADYFPEPVTVSWNSGALTSGVHTFPAVLQSSGLYSLSSVVTVPSSSLGTQTYICNVNHKPSNTKVDEKVEPKSCDKTHTCPPCPAPEAAGGPSVFLFPPKPKDTLMISRTPEVTCVVVDVSHEDPEVKFNWYVDGVEVHNAKTKPREEQYNSTYRVVSVLTVLHQDWLNGKEYKCKVSNKALPAPIEKTISKAKGQPREPQVYTLPPSREEMTDNQVSLTCLVKGFYPSDIAVEWESNGQPENNYKTTPPVLMSDGSFFLASKLTVDKSRWQQGNVFSCSVMHEALHNHYTQKSLSLSPG
light 1: B1 light 2 with D1R, R37D, D41K, E122K, S130R
heavy 2: QVQLVESGGGVVQPGRSLRLSCAASGFTFSGYGMHWVRYAPGKGLDWVAIIYYNGNNKYYADRVKGRFTISRDNSKNTLYLQMNSLRAEDTAVYYCARGGGYNWFDPWGRGTLVIVSSASTKGPSVFPLAPSSKSTSGGTAALGCLVKDYFPEPVTVSWNSGALTSGVHTFPAVLQSSGLYSLSSVVTVPSSSLGTQTYICNVNHKPSNTKVDKKVEPKSCDKTHTCPPCPAPEAAGGPSVFLFPPKPKDTLMISRTPEVTCVVVDVSHEDPEVKFNWYVDGVEVHNAKTKPREEQYNSTYRVVSVLTVLHQDWLNGKEYKCKVSNKALPAPIEKTISKAKGQPRRPRVYTLPPSREEMTKNQVSLVCLVKGFYPSDIAVEWESNGQPENNYKTTPPVLDSDGSFFLYSVLTVDKSRWQQGNVFSCSVMHEALHNHYTQKSLSLSPG
light 2: not shown
B3: the Max killing % came out at 100% and the “X… HeLa EC50” value was 0.179 nM.

B4: GOMP001_bsAb_017 (bispecific antibody, human IgG1, kappa, L234A L235A)
heavy 1: B3 heavy 1
light 1: B1 light 2 with D1R, R37D, D41K, E122K, S130R
heavy 2: EVQLVESGGDLVQPGRSLRLSCAASGFTFDDCVIHWVRYAPGKGLEWVSGITWNSGRIGYADRVKGRFTISRDNAKNSLYLQMNSLRVEDTALYYCAKEGNYDFWSTYYRGYFDLWGRGTLVTVSSASTKGPSVFPLAPSSKSTSGGTAALGCLVKDYFPEPVTVSWNSGALTSGVHTFPAVLQSSGLYSLSSVVTVPSSSLGTQTYICNVNHKPSNTKVDKKVEPKSCDKTHTCPPCPAPEAAGGPSVFLFPPKPKDTLMISRTPEVTCVVVDVSHEDPEVKFNWYVDGVEVHNAKTKPREEQYNSTYRVVSVLTVLHQDWLNGKEYKCKVSNKALPAPIEKTISKAKGQPRRPRVYTLPPSREEMTKNQVSLVCLVKGFYPSDIAVEWESNGQPENNYKTTPPVLDSDGSFFLYSVLTVDKSRWQQGNVFSCSVMHEALHNHYTQKSLSLSPG
light 2: B1 light 1 with R1D, D38R, T39K, K42D, S56G, S60L, Y92N, K123E, R131S
On to B4, for which the Max killing % was determined as 91.4% and the “X… HeLa EC50” value was 0.705 nM.

B5: GOMP001_bsAb_016 (bispecific antibody, human IgG1, kappa, L234A L235A)
heavy 1: QVQLVESGGGVVQPGRSLRLSCAASGFTFSGYGMHWVRKAPGKGLDWVAIIYYNGNNKYYADEVKGRFTISRDNSKNTLYLQMNSLRAEDTAVYYCARGGGYNWFDPWGQGTLVIVSSASTKGPSVFPLAPSSKSTSGGTAALGCLVADYFPEPVTVSWNSGALTSGVHTFPAVLQSSGLYSLSSVVTVPSSSLGTQTYICNVNHKPSNTKVDEKVEPKSCDKTHTCPPCPAPEAAGGPSVFLFPPKPKDTLMISRTPEVTCVVVDVSHEDPEVKFNWYVDGVEVHNAKTKPREEQYNSTYRVVSVLTVLHQDWLNGKEYKCKVSNKALPAPIEKTISKAKGQPREPQVYTLPPSREEMTDNQVSLTCLVKGFYPSDIAVEWESNGQPENNYKTTPPVLMSDGSFFLASKLTVDKSRWQQGNVFSCSVMHEALHNHYTQKSLSLSPG
light 1: RIQMTQSPSSLSASVGDRVTITCRPSQSISNYLNWYQDKPGKAPKLLIYAASSLQSGVPSRFSGSGSGTDFTLTISSLQPEDFATYYCQQSYSTPFTFGRGTRLEIKRTVAAPSVFIFPPSDKQLKSGTARVVCLLNNFYPREAKVQWKVDNALQSGNSQESVTEQDSKDSTYSLSSTLTLSKADYEKHKVYACEVTHQGLSSPVTKSFNRGEC
heavy 2: B1 heavy 2
light 2: B1 light 2
Consider B5, for which the Max killing % was determined as 92% and the “X… HeLa EC50” value is 0.0192 nM.
